Results published in publication doi:10.1101/2019.12.15.876185.

Test system: CTCF (human)
Assay: EMSA

Q: For Cacna1b e37a DNA probe (139 bp), which Kd is on record?
A: 0.0461 ng
